Measured values as given in IntAct's records for PubMed 11782428.

B1: Tyrosine-protein kinase Lyn (Homo sapiens), P07948 (parent)
chain: MGCIKSKGKDSLSDDGVDLKTQPVRNTERTIYVRDPTSNKQQRPVPESQLLPGQRFQTKDPEEQGDIVVALYPYDGIHPDDLSFKKGEKMKVLEEHGEWWKAKSLLTKKEGFIPSNYVAKLNTLETEEWFFKDITRKDAERQLLAPGNSAGAFLIRESETLKGSFSLSVRDFDPVHGDVIKHYKIRSLDNGGYYISPRITFPCISDMIKHYQKQADGLCRRLEKACISPKPQKPWDKDAWEIPRESIKLVKRLGAGQFGEVWMGYYNNSTKVAVKTLKPGTMSVQAFLEEANLMKTLQHDKLVRLYAVVTREEPIYIITEYMAKGSLLDFLKSDEGGKVLLPKLIDFSAQIAEGMAYIERKNYIHRDLRAANVLVSESLMCKIADFGLARVIEDNEYTAREGAKFPIKWTAPEAINFGCFTIKSDVWSFGILLYEIVTYGKIPYPGRTNADVMTALSQGYRMPRVENCPDELYDIMKMCWKEKAEERPTFDYLQSVLDDFYTATEGQYQQQP
partner: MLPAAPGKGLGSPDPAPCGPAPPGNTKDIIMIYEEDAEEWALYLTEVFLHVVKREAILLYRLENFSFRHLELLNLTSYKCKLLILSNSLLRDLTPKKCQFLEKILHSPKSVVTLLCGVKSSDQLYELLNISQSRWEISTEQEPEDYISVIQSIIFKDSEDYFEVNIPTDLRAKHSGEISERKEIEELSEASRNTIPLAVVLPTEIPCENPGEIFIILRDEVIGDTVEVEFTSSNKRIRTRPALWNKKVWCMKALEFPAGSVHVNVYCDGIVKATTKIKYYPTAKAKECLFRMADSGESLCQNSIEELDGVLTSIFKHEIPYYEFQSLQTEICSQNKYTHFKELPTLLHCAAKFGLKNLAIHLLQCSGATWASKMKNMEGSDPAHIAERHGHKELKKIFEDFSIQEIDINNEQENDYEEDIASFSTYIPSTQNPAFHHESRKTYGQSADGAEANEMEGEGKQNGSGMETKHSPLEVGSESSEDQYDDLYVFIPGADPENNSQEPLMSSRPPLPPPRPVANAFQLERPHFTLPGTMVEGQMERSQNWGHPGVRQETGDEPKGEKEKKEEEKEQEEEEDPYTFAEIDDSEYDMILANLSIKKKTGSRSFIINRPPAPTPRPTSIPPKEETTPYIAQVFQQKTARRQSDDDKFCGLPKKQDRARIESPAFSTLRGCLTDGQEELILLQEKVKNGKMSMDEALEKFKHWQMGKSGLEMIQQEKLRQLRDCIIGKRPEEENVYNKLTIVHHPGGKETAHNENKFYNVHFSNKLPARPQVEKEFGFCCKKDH

Variants of: B1
Conditions: with bank1_human BANK1, Q8NDB2

Variant	effect of a mutation on the interaction
P114L	with no effect
K275L	decreasing interaction strength
R156D;S158F	with no effect
Y508F	with no effect
